B1: WEE1 (parent)
chain: FISRTSIPNAASEEGDEDDWASNK

Variants of: B1
Assay: protein stability index of a GFP-peptide fusion (GPS, HEK-293T) (PSI 1-6); higher = more stable
Details: c terminus: a fixed tail appended
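Note: lentivirally expressed fusions sorted by FACS into six bins by GFP to DsRed ratio, PSI derived from sequencing read proportions per bin multiplied by bin number.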

Protein stability index: each site, then its substitutions
W20: V 4.81, S 4.93, G 4.52, L 4.23, T 4.46, N 4.51, D 4.92, M 4.44, H 4.44, E 4.75, Q 4.7, R 4.46, F 4.81, Y 4.23, P 4.57, C 4.75, A 4.79, I 4.21, K 3.42
G15: K 4.18, L 3.74, C 4.51, Q 3.78, F 3.83, R 3.26, S 4.42, I 4.29, Y 4.13, N 3.78, M 3.72, W 3.27, H 3.91, P 3.79, D 4.12, V 4.46, A 4.17, T 4.17, E 4.62
E14: V 3.35, T 3.99, A 4.43, G 3.33, S 3.66, L 3.56, M 3.79, P 3.98, R 3.39, W 3.02, D 3.88, N 3.78, Y 4.02, F 3.53, C 4.11, Q 3.91, H 3.75, K 4.03, I 3.64
D19: G 3.82, S 3.78, H 3.61, K 3.77, T 3.58, M 3.06, N 3.72, W 2.37, Y 3.27, P 3.37, R 3.5, Q 3.87, I 2.67, C 3.34, E 3.96, V 3.02, F 2.31, A 3.77, L 2.48
K24: N 4.23, G 4.01, M 3.82, P 4.54, C 4.15, L 4.04, D 4.73, A 4.19, H 3.91, Q 4.46, F 4.04, I 4.12, E 4.69
S22: E 4.18, M 3.88, A 4.15, L 3.52, R 3.99, T 4.23, C 3.87, P 3.14, Q 3.9, K 4.38, Y 4.08, F 3.96, D 4.51, V 3.96, G 2.83, H 3.92, W 2.71, N 4.11, I 4.24
A21: L 3.29, H 4.09, G 4.63, I 3.83, E 4.5, N 3.76, M 3.77, K 4.21, T 4.59, F 3.72, R 4.39, W 3.53, D 4.77, P 3.7, S 4.1, Y 3.9, V 3.81, Q 3.62, C 4.1
A10: E 4.35, W 2.15, C 3.67, P 4.21, R 3.97, Y 3.17, N 3.86, K 3.65, S 4.34, Q 4.16, G 4.13, T 3.89, V 3.57, F 3.24, H 4.06, M 3.54, I 3.56, D 3.15, L 3.93
I7: N 4.35, D 4.84, W 2.82, Q 4.37, Y 2.72, H 3.79, T 4.53, G 4.84, L 4.11, V 3.78, R 3.58, E 4.54, F 2.79, S 4.36, K 4.28, P 4.79, M 4.41
N23: F 3.94, W 3.65, K 3.93, E 4.22, H 3.76, Y 3.64, I 3.79, L 3.45, M 3.57, T 4.22, A 3.94, D 3.92, C 3.73, P 3.67, R 4.21, G 4.33, V 2.71, S 4.16, Q 3.82
P8: K 4.12, G 2.17, M 3.51, D 4.68, R 3.69, Y 2.16, F 3.19, T 4.1, N 4.31, L 2.92, I 3.82, E 3.82, W 2.01, Q 3.96, S 4.05, H 3.41, A 3.93, C 3.18, V 3.48
E17: V 3.35, G 3.75, Q 3.79, M 3.67, C 3.43, I 3.8, D 4.06, N 2.13, L 3.11, F 3.01, K 3.73, Y 3.59, R 3.67, T 3.64, S 3.72, W 3.04, A 3.73, P 3.37, H 4.05
E13: F 3.65, D 3.68, G 3.78, C 3.62, L 3.5, Q 3.81, W 3.54, S 3.9, H 3.67, R 4.15, N 3.51, A 3.85, T 3.55, M 3.64, V 3.29, I 3.03, Y 3.46, P 4.43, K 3.5
D16: L 3.83, C 3.74, N 3.8, E 3.94, I 4, H 3.23, F 3.63, Q 4.02, K 3.81, M 3.61, W 3.23, R 4.17, P 3.55, Y 3.46, G 3.76, T 3.49, S 3.65, A 3.72, V 3.86
N9: F 2.87, P 3.91, T 4.21, D 4.34, L 3.79, G 4.38, A 3.66, Y 2.35, M 3.25, E 4.64, W 2.46, I 3.77, C 3.44, K 4.13, V 3.93, R 3.35, S 3.84, Q 4.28, H 3.93
A11: L 4.13, V 3.92, T 4.19, E 4.37, W 2.45, I 3.48, H 4.4, M 3.95, Q 4.21, R 3.78, K 3.69, D 4.12, P 3.95, F 3.47, S 4.23, C 3.47, Y 3.63, N 3.79, G 4.23
D18: L 3.16, E 4.22, T 3.5, G 3.55, Q 3.56, S 3.46, M 3.03, P 3.6, A 3.62, Y 2.5, N 3.27, I 3.53, F 2.5, R 3.81, C 3.28, H 2.23, W 2.54, K 3.76, V 3.35
S12: P 4.18, Q 4.3, M 3.68, R 4.37, E 4.34, L 4.03, I 3.85, C 3.97, A 3.64, H 3.93, K 3.75, D 4.26, G 4.13, T 3.56, W 3.47, Y 3.76, V 3.91, F 3.68, N 4.07

— the supplement of paper PMC10567573
